One molecule from publication PMC2034485 can be followed below.

This data set addresses Rad18 S471A;Rad6 (hHR6B) (Homo sapiens;Homo sapiens, UniProt Q9NS91;P63146 1-495;1-152, S471A|). Kind of data set: EMSA, competition.

Chain of Rad18 S471A;Rad6 (hHR6B) (Q9NS91 whole entry S471A, chain 1 of 2): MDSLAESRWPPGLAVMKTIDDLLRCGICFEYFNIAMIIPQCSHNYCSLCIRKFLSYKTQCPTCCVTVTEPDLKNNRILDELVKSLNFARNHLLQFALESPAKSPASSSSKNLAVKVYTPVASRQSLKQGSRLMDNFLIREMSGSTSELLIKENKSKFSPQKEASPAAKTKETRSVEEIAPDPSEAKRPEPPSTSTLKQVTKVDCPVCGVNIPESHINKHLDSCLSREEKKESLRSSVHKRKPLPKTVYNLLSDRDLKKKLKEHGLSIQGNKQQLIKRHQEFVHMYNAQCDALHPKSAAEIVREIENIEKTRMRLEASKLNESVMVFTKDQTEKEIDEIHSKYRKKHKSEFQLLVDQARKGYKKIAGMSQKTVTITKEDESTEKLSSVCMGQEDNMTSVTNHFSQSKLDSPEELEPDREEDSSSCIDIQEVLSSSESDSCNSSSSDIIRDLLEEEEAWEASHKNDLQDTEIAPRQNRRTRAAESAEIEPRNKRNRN
Chain of Rad18 S471A;Rad6 (hHR6B) (P63146 whole entry, chain 2 of 2): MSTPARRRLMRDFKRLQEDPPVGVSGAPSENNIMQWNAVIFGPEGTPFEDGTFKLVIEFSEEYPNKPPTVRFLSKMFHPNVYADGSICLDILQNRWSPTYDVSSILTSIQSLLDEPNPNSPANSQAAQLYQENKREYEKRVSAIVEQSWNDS

Regarding TTTTTTTTTTTTTTTTTTTTTTTTTTTTTTTTTTT (ssDNA) [35T], the binding result is “binds”.
